Assay [1] has as its target T1, human αV on parental A375M cells, which express αVβ3 and αVβ5, but not αVβ6 (human, UniProt P06756 31-1048).
T1 construct: whole, on cells; Two heterodimers (αVβ3, αVβ5) on one cell line; also called αVβ3 or αVβ5 integrins
The assay is described as follows: FACS, parental A375M cells (αVβ3, αVβ5).

In assay [2] the target is T1, human αV on parental A375M cells, which …. The assay is described as follows: cell-based or functional assay.
In assay [3] the target is T2, α4β1 integrin (on J6.77 cells) (UniProt P13612 34-1032; P05556 21-798, limits assumed). The assay is described as follows: cell-based or functional assay.
Assay [4] concerns the target T3, α5β1 integrin (on K562 cells) (UniProt P08648 42-1049; P05556 21-798, limits assumed). In words: cell-based or functional assay.
Assay [5] addresses T3, α5β1 integrin (on K562 cells). The assay is described as follows: cell-based or functional assay. This is another data set of the same source.
In assay [6] the target is T2, α4β1 integrin (on J6.77 cells). In words: cell-based or functional assay. The source holds these as a separate data set.
In assay [7] the target is T4, human αVβ6 integrin on cells (human, UniProt P06756 31-1048; P18564 22-788).
T4 construct: whole, on cells; Heterodimer on transfected cells (HEK 293, K562, 293T) or on αVβ6-positive tumour lines (HT29, Detroit-562); also called αVβ6 on HEK 293, K562, 293T-αVβ6, HT29, Detroit-562 cells
The assay is described as follows: FACS, 293T-αVβ6 cells, antibody at 1.25 ug/ml.

The target in assay [8] is T4, human αVβ6 integrin on cells. The assay is described as follows: cell-based or functional assay.
Assay [9] shares this target. In words: FACS titration on K562 cells expressing human αVβ6 (as Example 18); 95% CI ±15.9 pM.
For assay [10] the target is unchanged. In words: FACS, 293T-αVβ6 cells, antibody at 20 ug/ml.
Assay [11] shares this target. The assay is described as follows: FACS, 293T-αVβ6 cells, antibody at 5 ug/ml. Background: In flow cytometry, cells or beads pass a laser one at a time.
Assay [12] has the same target. In words: FACS titration on K562 cells expressing human αVβ6 (as Example 18).
Assay [13] has the same target. In words: FMAT, HEK 293 cells overexpressing αVβ6, supernatant.
Assay [14] has the same target. The assay is described as follows: cell-based or functional assay. The source holds these as a separate data set.
For a further assay, the target named is T5, soluble αVβ6 (human, UniProt P06756 31-992; P18564 22-709).
T5 construct: extracellular domain; also called soluble αVβ6 protein; soluble antigen
In words: Biacore, mAb captured on anti-human IgG, soluble αVβ6 injected, 1:1 fit. Background: Surface plasmon resonance follows binding to a sensor surface in real time, without labels.

The target of assay [15] is T4, human αVβ6 integrin on cells. In words: cell-based or functional assay. The source holds these as a separate data set.
The next assay concerns the target T6, cynomolgus αVβ6 on cells (cynomolgus, UniProt A0A2K5WCD3 31-1048; A0A2K5TZ36 22-787).
T6 construct: whole, on cells; also called macaque αVβ6; Mac AVB6
The assay is described as follows: FACS, HEK-293 transfected with cynomolgus αV and β6.

In assay [16] the target is T7, mouse αV (HEK-293 cells transfected with mouse αV alone) (mouse, UniProt P43406 31-1044).
T7 construct: whole, on cells; Single chain transfected into HEK-293 cells; also called Mouse alphaV
The assay is described as follows: FACS, HEK-293 transfected with mouse αV.

The target in assay [17] is T4, human αVβ6 integrin on cells. The assay is described as follows: FACS titration on K562 cells expressing human αVβ6; 95% CI ±22.7 pM.

Where a chain is given by its changes, count along the chain named. Like-named read-outs stand apart in the source and are kept apart here.

T3 sequence (P08648 42-1049 limits assumed, chain 1 of 2): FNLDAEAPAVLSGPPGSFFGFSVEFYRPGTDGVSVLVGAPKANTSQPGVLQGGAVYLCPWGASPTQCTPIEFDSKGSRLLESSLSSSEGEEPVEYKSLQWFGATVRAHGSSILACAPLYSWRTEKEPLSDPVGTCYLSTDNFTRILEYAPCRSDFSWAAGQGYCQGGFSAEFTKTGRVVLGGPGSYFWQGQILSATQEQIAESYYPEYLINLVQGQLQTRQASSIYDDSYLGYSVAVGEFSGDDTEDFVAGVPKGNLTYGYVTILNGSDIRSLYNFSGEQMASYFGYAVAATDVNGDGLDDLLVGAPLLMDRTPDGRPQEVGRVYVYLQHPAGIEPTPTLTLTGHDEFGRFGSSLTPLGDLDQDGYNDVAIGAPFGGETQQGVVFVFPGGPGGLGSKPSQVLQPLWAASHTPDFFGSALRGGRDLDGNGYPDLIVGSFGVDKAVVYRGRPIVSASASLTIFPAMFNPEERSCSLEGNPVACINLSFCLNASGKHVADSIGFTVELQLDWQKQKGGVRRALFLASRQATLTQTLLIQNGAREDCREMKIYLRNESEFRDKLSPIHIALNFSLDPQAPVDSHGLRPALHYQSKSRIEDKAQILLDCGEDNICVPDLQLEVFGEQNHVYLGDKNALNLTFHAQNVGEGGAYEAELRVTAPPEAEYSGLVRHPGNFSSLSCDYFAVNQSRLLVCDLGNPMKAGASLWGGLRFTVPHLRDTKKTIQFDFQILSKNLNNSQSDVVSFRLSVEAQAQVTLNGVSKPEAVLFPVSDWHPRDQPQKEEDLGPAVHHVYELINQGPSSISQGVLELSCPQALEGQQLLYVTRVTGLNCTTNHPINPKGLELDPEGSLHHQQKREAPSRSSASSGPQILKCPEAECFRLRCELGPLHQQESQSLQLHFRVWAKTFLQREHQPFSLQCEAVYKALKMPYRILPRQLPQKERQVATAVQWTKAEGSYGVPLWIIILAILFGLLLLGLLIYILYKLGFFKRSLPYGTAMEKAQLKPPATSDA
T3 sequence (P05556 21-798 limits assumed, chain 2 of 2): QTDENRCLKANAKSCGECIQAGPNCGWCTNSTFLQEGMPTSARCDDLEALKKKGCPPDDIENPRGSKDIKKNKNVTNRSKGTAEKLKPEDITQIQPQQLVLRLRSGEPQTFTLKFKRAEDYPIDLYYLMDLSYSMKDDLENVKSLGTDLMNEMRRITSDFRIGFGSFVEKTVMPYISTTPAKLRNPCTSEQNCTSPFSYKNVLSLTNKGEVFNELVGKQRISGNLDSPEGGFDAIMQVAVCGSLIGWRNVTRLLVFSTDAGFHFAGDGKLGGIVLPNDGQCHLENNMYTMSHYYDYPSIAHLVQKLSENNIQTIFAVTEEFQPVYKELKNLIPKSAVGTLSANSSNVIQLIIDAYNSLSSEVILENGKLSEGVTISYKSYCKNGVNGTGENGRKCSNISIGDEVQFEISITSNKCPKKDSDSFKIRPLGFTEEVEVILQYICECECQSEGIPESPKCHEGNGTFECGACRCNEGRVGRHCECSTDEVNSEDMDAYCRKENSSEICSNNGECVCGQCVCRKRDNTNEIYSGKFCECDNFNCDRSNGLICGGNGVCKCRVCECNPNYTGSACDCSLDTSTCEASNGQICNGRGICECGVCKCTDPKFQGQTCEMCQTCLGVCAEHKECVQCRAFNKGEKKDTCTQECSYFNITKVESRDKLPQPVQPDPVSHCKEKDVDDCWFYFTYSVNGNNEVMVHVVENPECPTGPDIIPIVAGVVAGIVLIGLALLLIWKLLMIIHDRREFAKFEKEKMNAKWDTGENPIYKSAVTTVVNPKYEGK
T4 sequence (P06756 31-1048, chain 1 of 2): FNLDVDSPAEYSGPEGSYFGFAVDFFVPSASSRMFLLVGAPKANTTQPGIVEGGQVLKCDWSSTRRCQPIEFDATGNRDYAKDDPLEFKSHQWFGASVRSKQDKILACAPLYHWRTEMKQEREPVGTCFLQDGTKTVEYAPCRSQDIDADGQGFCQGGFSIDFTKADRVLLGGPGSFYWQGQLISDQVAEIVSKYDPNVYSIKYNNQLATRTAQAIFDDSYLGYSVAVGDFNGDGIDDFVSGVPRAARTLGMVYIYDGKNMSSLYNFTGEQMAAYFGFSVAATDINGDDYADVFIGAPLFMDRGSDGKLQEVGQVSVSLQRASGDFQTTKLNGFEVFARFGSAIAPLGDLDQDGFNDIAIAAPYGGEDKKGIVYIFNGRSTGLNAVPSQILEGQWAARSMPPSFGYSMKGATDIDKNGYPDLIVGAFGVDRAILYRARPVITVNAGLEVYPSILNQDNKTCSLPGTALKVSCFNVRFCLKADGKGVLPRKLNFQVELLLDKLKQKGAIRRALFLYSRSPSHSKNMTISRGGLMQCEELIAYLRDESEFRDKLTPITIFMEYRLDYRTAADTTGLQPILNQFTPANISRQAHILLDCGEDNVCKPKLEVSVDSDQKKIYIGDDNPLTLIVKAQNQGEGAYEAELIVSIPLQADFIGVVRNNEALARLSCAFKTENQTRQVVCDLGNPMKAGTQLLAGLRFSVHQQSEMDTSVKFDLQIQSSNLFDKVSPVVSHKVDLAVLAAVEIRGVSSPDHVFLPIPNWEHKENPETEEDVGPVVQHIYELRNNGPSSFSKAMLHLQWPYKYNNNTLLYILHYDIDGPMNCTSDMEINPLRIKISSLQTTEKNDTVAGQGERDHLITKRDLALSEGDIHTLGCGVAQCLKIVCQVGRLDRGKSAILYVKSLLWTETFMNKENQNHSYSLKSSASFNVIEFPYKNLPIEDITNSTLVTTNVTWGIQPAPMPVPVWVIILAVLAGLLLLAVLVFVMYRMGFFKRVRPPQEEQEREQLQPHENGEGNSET
T4 sequence (P18564 22-788, chain 2 of 2): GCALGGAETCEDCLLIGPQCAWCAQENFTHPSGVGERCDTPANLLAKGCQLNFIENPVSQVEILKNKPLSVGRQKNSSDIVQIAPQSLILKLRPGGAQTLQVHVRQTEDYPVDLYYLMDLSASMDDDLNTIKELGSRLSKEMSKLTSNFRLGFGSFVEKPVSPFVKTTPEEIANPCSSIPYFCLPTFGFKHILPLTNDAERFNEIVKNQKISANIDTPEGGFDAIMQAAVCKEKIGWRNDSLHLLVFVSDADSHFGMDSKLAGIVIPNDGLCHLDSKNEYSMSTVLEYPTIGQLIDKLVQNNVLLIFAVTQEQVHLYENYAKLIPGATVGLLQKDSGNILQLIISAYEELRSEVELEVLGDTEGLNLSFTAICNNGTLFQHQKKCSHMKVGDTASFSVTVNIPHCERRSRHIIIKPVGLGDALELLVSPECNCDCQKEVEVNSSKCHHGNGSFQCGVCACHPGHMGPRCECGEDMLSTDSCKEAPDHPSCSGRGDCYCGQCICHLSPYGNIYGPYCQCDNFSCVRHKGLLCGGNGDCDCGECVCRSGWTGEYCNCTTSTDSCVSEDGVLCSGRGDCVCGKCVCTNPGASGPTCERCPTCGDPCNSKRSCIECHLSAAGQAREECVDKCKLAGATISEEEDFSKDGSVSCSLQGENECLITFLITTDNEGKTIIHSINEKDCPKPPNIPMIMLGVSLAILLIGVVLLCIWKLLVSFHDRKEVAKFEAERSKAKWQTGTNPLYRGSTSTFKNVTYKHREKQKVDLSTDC
T1 sequence (P06756 31-1048 A375M): as the sequence (P06756 31-1048, chain 1 of 2) above, with A345M counted along it
T7 sequence (P43406 31-1044): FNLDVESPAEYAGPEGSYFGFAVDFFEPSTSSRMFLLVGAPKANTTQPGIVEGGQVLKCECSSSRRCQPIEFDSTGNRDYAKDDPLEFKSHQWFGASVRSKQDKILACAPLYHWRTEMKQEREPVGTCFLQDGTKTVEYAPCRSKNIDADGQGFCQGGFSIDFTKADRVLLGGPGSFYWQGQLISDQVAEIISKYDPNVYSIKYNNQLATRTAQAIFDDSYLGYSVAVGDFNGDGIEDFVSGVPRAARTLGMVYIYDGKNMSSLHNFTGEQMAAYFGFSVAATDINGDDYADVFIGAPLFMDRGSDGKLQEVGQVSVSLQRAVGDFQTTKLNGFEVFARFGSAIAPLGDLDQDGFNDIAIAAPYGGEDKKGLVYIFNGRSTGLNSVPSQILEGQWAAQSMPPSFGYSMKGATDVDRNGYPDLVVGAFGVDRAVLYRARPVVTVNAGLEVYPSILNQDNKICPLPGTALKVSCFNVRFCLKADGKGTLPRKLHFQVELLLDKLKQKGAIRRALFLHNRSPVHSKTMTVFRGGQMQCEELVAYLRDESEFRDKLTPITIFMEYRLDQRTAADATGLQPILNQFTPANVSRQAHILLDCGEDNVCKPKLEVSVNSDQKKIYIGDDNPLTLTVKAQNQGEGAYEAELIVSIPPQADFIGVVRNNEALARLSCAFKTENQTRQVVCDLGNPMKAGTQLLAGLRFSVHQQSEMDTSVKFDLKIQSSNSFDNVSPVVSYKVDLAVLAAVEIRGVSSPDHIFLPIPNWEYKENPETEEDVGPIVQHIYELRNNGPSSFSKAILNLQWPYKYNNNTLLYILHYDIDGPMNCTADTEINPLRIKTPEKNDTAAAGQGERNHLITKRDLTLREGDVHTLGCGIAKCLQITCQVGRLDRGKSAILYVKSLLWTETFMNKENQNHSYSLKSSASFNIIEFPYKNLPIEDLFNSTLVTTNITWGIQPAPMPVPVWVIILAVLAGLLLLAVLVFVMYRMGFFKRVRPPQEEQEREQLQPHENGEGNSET

B1: sc 264 (antibody, V domains shown)
VH: QVQLQESGPGLVKPSQTLSLTCTVSGGSISSGGYYWSWIRQHPGKGLEWIGYIYYSGRTYNNPSLKSRVTISVDTSKNQFSLKLSSVTAADTAVYYCARVATGRGDYHFYAMDVWGQGTTVTVSS
VL: SYELTQPSSVSVSPGQTARITCSGDVLAKKSARWFHQKPGQAPVLVIYKDSERPSGIPERFSGSSSGTTVTLTISGAQVEDEAAYYCYSAADNNLVFGGGTKLTVL
notes: RGD in heavy chain CDR3
Regarding B1, in assay [1], the “% Cells Shifted” value came to 46% and the GeoMean amounted to 2.35. For the same molecule, the “Percent Inhibition (A375M adhesion to osteopontin peptide, 5 µg/ml)” value in assay [2] worked out at 3%. In addition, the “Percent Inhibition (J6.77 adhesion to CS-1 peptide of fibronectin, 5 ug/ml)” value in assay [3] was -30%. In addition, the “% Inhibition (K562 adhesion to fibronectin)” value in assay [4] amounted to 3%. In assay [5], the “Percent Inhibition (K562 adhesion to FN9-10 peptide of fibronectin, 5 µg/ml)” value is -4%. For the same molecule, the “Percent Inhibition (J6.77 adhesion to CS-1 peptide of fibronectin, 5 ug/ml)” value in assay [6] is -8%.

B2: sc 264 RAD (antibody, V domains shown)
VH: B1 VH with G105A
VL: B1 VL
notes: Variable domains only
With B2, the “Percent Inhibition (J6.77 adhesion to CS-1 peptide of fibronectin, 5 ug/ml)” value in [3] is -2%. Also, the “Geometric Mean Shift” value was found to be 4890 in [7], 7240 in assay [10] and 6840 in [11]. Besides, in assay [4], the “% Inhibition (K562 adhesion to fibronectin)” value was determined as 6%. Also, in [8], the “IC50, n = 1 (HT29 adhesion to TGFβLAP)” value was 0.013 µg/mL. Further, the “IC50, n = 2 (HT29 adhesion to TGFβLAP)” value in assay [8] was found to be 0.013 µg/mL. In addition, the “IC50, n = 3 (HT29 adhesion to TGFβLAP)” value in assay [8] worked out at 0.039 µg/mL. For the same molecule, the Kd is 46.3 pM in assay [9] and less than 50 pM in assay [12].

B3: sc 298 (antibody, V domains shown)
VH: QVQLVESGGGVVQPGRSLRLSCAASGFTFSSYGMHWVRQAPGKGLEWVAVIWYGGSNKYYADSVKGRFTISRDNSKNTLYLQMNSLRAEDTAVYYCARDLAARRGDYYYYGMDVWGQGTTVTVSS
VL: SSELTQDPVVSVALGQTVRITCQGDSLRSYYLSWYQQKPGQAPVLVIYGKNNRPSGIPDRFSGSNSGNTASLTITGAQAEDEADYYCNSRDSSGNHLFGGGTKLTVL
In the case of B3, in assay [1], the “% Cells Shifted” value was determined as 45% and the GeoMean amounted to 2.14. Further, the “Percent Inhibition (A375M adhesion to osteopontin peptide, 5 µg/ml)” value in assay [2] came out at 9%. Moreover, in assay [13], the “FMAT Count” value stood at 102, the “FMAT FL1” value came to 2140 and the “FMAT FL1 × Count” value came out at 218000. Further, in assay [14], the “Assay 1 % Inhibition (HT29 adhesion to TGFβLAP)” value was 98%, the “Assay 2 % Inhibition (HT29 adhesion to TGFβLAP)” value was 102% and the “Average % Inhibition (HT29 adhesion to TGFβLAP)” value is 100%. Moreover, in the assay with soluble αVβ6, the Kd was found to be 21000 pM, the koff worked out at 0.00118 s⁻¹ and the kon amounted to 56500 M⁻¹ s⁻¹. In assay [5], the “Percent Inhibition (K562 adhesion to FN9-10 peptide of fibronectin, 5 µg/ml)” value turned out to be 2%. In assay [15], the “Estimated IC50, n = 1 (HT29 adhesion to TGFβLAP)” value was 0.029 µg/mL; the “Estimated IC50, n = 2 (HT29 adhesion to TGFβLAP)” value was 0.025 µg/mL; the “Estimated IC50, n = 3 (HT29 adhesion to TGFβLAP)” value is 0.033 µg/mL. Also, in assay [6], the “Percent Inhibition (J6.77 adhesion to CS-1 peptide of fibronectin, 5 ug/ml)” value was -7%. In the assay with cynomolgus αVβ6 on cells, the “% Cells Shifted” value amounted to 53% and the GeoMean worked out at 63.1.

B4: sc 133 (antibody, V domains shown)
VH: QVQLVQSGAEVKKPGASVKVSCKASGYTFTGYYMHWVRQAPGQGLEWMGWINPKSGDTNYAQKFQGRVTLTRDTSTSTAYMELSRLRSDDTAVYYCARRLDVWGQGTTVTVSS
VL: QSVLTQPPSVSAAPGQKVTISCSGSSSNIGNNYVSWYQQLPGTAPKLLIYDNNKRPSGIPDRFSGSKSGTSATLGITGLQTGDEADYYCGTWNSSLSAGYVFGTGTKVTV
Consider B4, for which, in assay [1], the “% Cells Shifted” value came out at 24% and the GeoMean is 1.79. Also, in [2], the “Percent Inhibition (A375M adhesion to osteopontin peptide, 5 µg/ml)” value is 3%. Also, the “percent of cells shifted” value in [16] stood at 4%. The “Percent Inhibition (K562 adhesion to FN9-10 peptide of fibronectin, 5 µg/ml)” value in assay [5] was -12%. Also, the “Percent Inhibition (J6.77 adhesion to CS-1 peptide of fibronectin, 5 ug/ml)” value in assay [6] was -15%.

B5: sc 188 (antibody, V domains shown)
VH: QVQLQESGPGLVKPSQTLSLTCTVSGGSISSGVYYWTWIRQHPGNGLEWIGYIYYSGSTSYNPSLKSRVTISVDTSKKQFSLNLTSVTAADTAVYYCAREGPLRGDYYYGLDVWGQGTTVTVSS
VL: EIVLTQSPGTLSLSPGERATLSCRAGQTISSRYLAWYQQKPGQAPRPLIYGASSRATGIPDRFSGSGSGTDFTLTISRLEPEDFAVYYCQQYGSSPRTFGQGTKVEIK
On to B5, for which the “Percent Inhibition (J6.77 adhesion to CS-1 peptide of fibronectin, 5 ug/ml)” value in [3] came to 2%. Moreover, in assay [13], the “FMAT Count” value was determined as 127, the “FMAT FL1” value worked out at 628 and the “FMAT FL1 × Count” value is 79800. Moreover, in assay [14], the “Assay 1 % Inhibition (HT29 adhesion to TGFβLAP)” value amounted to 99%, the “Assay 2 % Inhibition (HT29 adhesion to TGFβLAP)” value turned out to be 103% and the “Average % Inhibition (HT29 adhesion to TGFβLAP)” value stood at 101%. In addition, the “% Inhibition (K562 adhesion to fibronectin)” value in [4] is -5%. Also, in [8], the “IC50, n = 1 (HT29 adhesion to TGFβLAP)” value was found to be 0.125 µg/mL; the “IC50, n = 2 (HT29 adhesion to TGFβLAP)” value worked out at 0.157 µg/mL; the “IC50, n = 3 (HT29 adhesion to TGFβLAP)” value was found to be 0.064 µg/mL. This molecule returned a Kd with soluble αVβ6 of 21200 pM. For the same molecule, the “Percent Inhibition (K562 adhesion to FN9-10 peptide of fibronectin, 5 µg/ml)” value in assay [5] is 5%. Besides, the Kd in [17] is 51.9 pM. For the same molecule, in [15], the “Estimated IC50, n = 1 (HT29 adhesion to TGFβLAP)” value was 0.041 µg/mL and the “Estimated IC50, n = 2 (HT29 adhesion to TGFβLAP)” value is 0.026 µg/mL. Also, the “Percent Inhibition (J6.77 adhesion to CS-1 peptide of fibronectin, 5 ug/ml)” value in [6] is -10%. Besides, the GeoMean with cynomolgus αVβ6 on cells was 23.9.

B6: sc 188 SDM (antibody, V domains shown)
VH: B5 VH with N83K
VL: B5 VL
notes: Variable domains only
As for B6, the “Percent Inhibition (J6.77 adhesion to CS-1 peptide of fibronectin, 5 ug/ml)” value in assay [3] is -6%. Also, the “Geometric Mean Shift” value in [7] was 4530. The “% Inhibition (K562 adhesion to fibronectin)” value in [4] is -8%. Moreover, in assay [8], the “IC50, n = 1 (HT29 adhesion to TGFβLAP)” value is 0.022 µg/mL; the “IC50, n = 2 (HT29 adhesion to TGFβLAP)” value is 0.024 µg/mL; the “IC50, n = 3 (HT29 adhesion to TGFβLAP)” value turned out to be 0.067 µg/mL. For the same molecule, in assay [10], the “Geometric Mean Shift” value stood at 6760. Moreover, the “Geometric Mean Shift” value in assay [11] came to 6820.

By Kd is commonly meant the concentration at which binding is half-saturated. Higher therefore signals weaker binding. In general, koff refers to the first-order rate constant of dissociation. A low value points to a long-lived complex. Broadly, the kon is the rate constant with which the complex forms.

These data come from US20080057063A1 (published 2008).
